Patent US20200078469A1, “HEPARIN-PEPTIDE BIOCONJUGATES AND USES THEREOF” (Symic IP, LLC, priority 2015, published 2020)
Ends that are not written are not given here.

Molecular target: collagen
Experiment: Collagen-binding plate assay
Conditions: compared to Hep-SILY that does not contain aggregates
Protocol: The following method is used to assess the binding affinity of bioconjugates disclosed herein for collagen. Similar assays are employed to assess binding affinity of other targets (e.g., hyaluronic acid, ICAM, VCAM, selectin).
Collagen-binding of bioconjugate variants was compared by a plate-assay, in which collagen was coated on 96-well plates. Collagen was coated on high-bind plates at 50 μg/mL in 0.02 N acetic acid for 1 hour at room temperature. Unbound collagen was rinsed with 1×PBS pH 7.4. Plates were then blocked in 1% milk in 1×PBS solution for 1 hour at room temperature.
Bioconjugate variants containing biotinlyated peptides were dissolved to a final concentration of 1 mg/mL in 1% milk in 1×PBS pH 7.4. From this solution, a 10× serial dilution was performed. Molecules were then incubated on the blocked collagen-coated plates and incubated for 15 minutes at room temperature. Plates were then rinsed 3 times with 1×PBS in 1% BSA and 0.2% Tween20.
Bound molecules were detected by streptavidin-HRP, which was diluted 1:500 in 1×PBS with 1% BSA and 0.2% Tween20 and incubated 200 μL/well for 20 minutes at room temperature. Streptavidin solution was rinsed from the plates 3 times with 1×PBS with 0.2% Tween20. […] Absorbance in the well was then measured at 450 nm and binding affinity was plotted in a dose-response by absorbance vs. concentration.

B1: Hep-SILY containing aggregates: Hep-SILY made with modified purification, containing ionically interacting non-covalently bound SILY peptide; high molecular weight aggregates (conjugate)
peptide 1: RRANAALKAGELYKSILYGSG
peptide 2: RRANAALKAGELYKSILYGSG
peptide 3: RRANAALKAGELYKSILYGSG
modifications: also: conjugated to heparin (glycan) via hydrazide-carbonyl linkage, non-covalent high molecular weight aggregates
  collagen binding affinity (EC50): higher affinity (lower EC50 values)
